From patent publication US20210101977A1 come the findings set out here.

For assay [1], the target named is full-length isoform 1 of human CD96 (SEQ ID NO: 127) expressed on CHO cells (human) (UniProt P40200). The assay can be described thus: flow cytometry (MFI against concentration), CHO cells expressing human CD96 isoform 1. Background: A flow cytometer gives signals particle by particle.
The target in assay [2] is cynomolgus monkey CD96 on activated primary cynomolgus T cells (cynomolgus monkey). Description: flow cytometry (MFI against concentration), activated primary cynomolgus T cells.
The target of assay [3] is isoform 2 of cynomolgus monkey CD96 (SEQ ID NO: 133) expressed on CHO cells (cynomolgus monkey). Description: flow cytometry (MFI against concentration), CHO cells expressing cynomolgus CD96 isoform 2.
Assay [4] deals with full-length isoform 2 of human CD96 (SEQ ID NO: 128) expressed on cells (human) (UniProt P40200). The assay can be described thus: flow cytometry (MFI against concentration), CHO cells expressing human CD96 isoform 2.
For assay [5] the target is unchanged. The assay can be described thus: flow cytometry (MFI against concentration), Jurkat cells expressing human CD96 isoform 2.

For IgG1 isotype control antibody, the Area under the curve (AUC) in assay [1] was 43500; in assay [2], 1270; in assay [3], 6030; in assay [4], 5810; in assay [5], 4760.
